B1: POU domain, class 4, transcription factor 1, residues 266 to 347; numbered along this chain, Q01851 (parent)
chain: RELEAFAERFKQRRIKLGVTQADVGSALANLKIPGVGSLSQSTICRFESLTLSHNNMIALKPILQAWLEEAEGAQREKMNKP

Our source for the abundance fitness values is the Human Domainome abundance scans (Beltran et al. 2025).

± gives the uncertainty stated by the source.

Variants of B1 are the subject of this data set. The experiment in a line: abundance fitness (aPCA) (normalised: wild type 0, dead -1); higher = more abundant; growth selection in yeast, the domain comes from the species named. Particulars: Homo sapiens.
As to RELEAFAERFKQRRIKLGVTQASVGSALANLKIPGVGSLSQSTICRFESLTLSHNNMIALKPILQAWLEEAEGAQREKMNKP, the abundance fitness was -0.027 ± 0.049.

As to RELEAFAERFKQRRIKLGVTQAHVGSALANLKIPGVGSLSQSTICRFESLTLSHNNMIALKPILQAWLEEAEGAQREKMNKP, the abundance fitness is -0.156 ± 0.1.

As to RELEAFAERFKQRRIKLGVTQANVGSALANLKIPGVGSLSQSTICRFESLTLSHNNMIALKPILQAWLEEAEGAQREKMNKP, the abundance fitness is -0.067 ± 0.14.

On to RELEAFAERFKQRRIKLGVTQATVGSALANLKIPGVGSLSQSTICRFESLTLSHNNMIALKPILQAWLEEAEGAQREKMNKP, for which the abundance fitness is -0.118 ± 0.066.

Take RELEAFAERFKQRRIKLGVTQAWVGSALANLKIPGVGSLSQSTICRFESLTLSHNNMIALKPILQAWLEEAEGAQREKMNKP: the abundance fitness is -0.405 ± 0.098.

For the variant RELEAFAERFKQRRIKLGVTQAYVGSALANLKIPGVGSLSQSTICRFESLTLSHNNMIALKPILQAWLEEAEGAQREKMNKP, the abundance fitness was -0.115 ± 0.094.

RELEAFAERFKQRRIKLGVTQAMVGSALANLKIPGVGSLSQSTICRFESLTLSHNNMIALKPILQAWLEEAEGAQREKMNKP: the abundance fitness was -0.022 ± 0.1.

For the variant RELEAFAERFKQRRIKLGVTQAVVGSALANLKIPGVGSLSQSTICRFESLTLSHNNMIALKPILQAWLEEAEGAQREKMNKP, the abundance fitness is -0.152 ± 0.05.

RELEAFAERFKQRRIKLGVTQAQVGSALANLKIPGVGSLSQSTICRFESLTLSHNNMIALKPILQAWLEEAEGAQREKMNKP: the abundance fitness amounted to 0.016 ± 0.063.

RELEAFAERFKQRRIKLGVTQACVGSALANLKIPGVGSLSQSTICRFESLTLSHNNMIALKPILQAWLEEAEGAQREKMNKP: the abundance fitness was -0.185 ± 0.098.

On to RELEAFAERFKQRRIKLGVTQALVGSALANLKIPGVGSLSQSTICRFESLTLSHNNMIALKPILQAWLEEAEGAQREKMNKP, for which the abundance fitness is -0.281 ± 0.06.

Consider RELEAFAERFKQRRIKLGVTQAPVGSALANLKIPGVGSLSQSTICRFESLTLSHNNMIALKPILQAWLEEAEGAQREKMNKP, for which the abundance fitness is -0.913 ± 0.44.

For RELEAFAERFKQRRIKLGVTQADMGSALANLKIPGVGSLSQSTICRFESLTLSHNNMIALKPILQAWLEEAEGAQREKMNKP, the abundance fitness was -0.253 ± 0.079.

On to RELEAFAERFKQRRIKLGVTQADAGSALANLKIPGVGSLSQSTICRFESLTLSHNNMIALKPILQAWLEEAEGAQREKMNKP, for which the abundance fitness is -0.241 ± 0.055.

Regarding RELEAFAERFKQRRIKLGVTQADFGSALANLKIPGVGSLSQSTICRFESLTLSHNNMIALKPILQAWLEEAEGAQREKMNKP, the abundance fitness was -0.337 ± 0.14.

Regarding RELEAFAERFKQRRIKLGVTQADHGSALANLKIPGVGSLSQSTICRFESLTLSHNNMIALKPILQAWLEEAEGAQREKMNKP, the abundance fitness is -0.815 ± 0.37.

In the case of RELEAFAERFKQRRIKLGVTQADCGSALANLKIPGVGSLSQSTICRFESLTLSHNNMIALKPILQAWLEEAEGAQREKMNKP, the abundance fitness is -0.326 ± 0.1.

With RELEAFAERFKQRRIKLGVTQADNGSALANLKIPGVGSLSQSTICRFESLTLSHNNMIALKPILQAWLEEAEGAQREKMNKP, the abundance fitness was -0.531 ± 0.27.

For the variant RELEAFAERFKQRRIKLGVTQADEGSALANLKIPGVGSLSQSTICRFESLTLSHNNMIALKPILQAWLEEAEGAQREKMNKP, the abundance fitness is -0.679 ± 0.088.

In the case of RELEAFAERFKQRRIKLGVTQADLGSALANLKIPGVGSLSQSTICRFESLTLSHNNMIALKPILQAWLEEAEGAQREKMNKP, the abundance fitness was -0.062 ± 0.049.

In the case of RELEAFAERFKQRRIKLGVTQADDGSALANLKIPGVGSLSQSTICRFESLTLSHNNMIALKPILQAWLEEAEGAQREKMNKP, the abundance fitness is -0.66 ± 0.16.

Turning to RELEAFAERFKQRRIKLGVTQNDVGSALANLKIPGVGSLSQSTICRFESLTLSHNNMIALKPILQAWLEEAEGAQREKMNKP, the abundance fitness worked out at 0.11 ± 0.33.

On to RELEAFAERFKQRRIKLGVTQHDVGSALANLKIPGVGSLSQSTICRFESLTLSHNNMIALKPILQAWLEEAEGAQREKMNKP, for which the abundance fitness worked out at 0.01 ± 0.14.

As for RELEAFAERFKQRRIKLGVTQGDVGSALANLKIPGVGSLSQSTICRFESLTLSHNNMIALKPILQAWLEEAEGAQREKMNKP, the abundance fitness is -0.017 ± 0.056.

Take RELEAFAERFKQRRIKLGVTQYDVGSALANLKIPGVGSLSQSTICRFESLTLSHNNMIALKPILQAWLEEAEGAQREKMNKP: the abundance fitness is 0.043 ± 0.12.

In the case of RELEAFAERFKQRRIKLGVTQTDVGSALANLKIPGVGSLSQSTICRFESLTLSHNNMIALKPILQAWLEEAEGAQREKMNKP, the abundance fitness is -0.068 ± 0.1.

RELEAFAERFKQRRIKLGVTQVDVGSALANLKIPGVGSLSQSTICRFESLTLSHNNMIALKPILQAWLEEAEGAQREKMNKP: the abundance fitness was -0.242 ± 0.095.

Turning to RELEAFAERFKQRRIKLGVTQPDVGSALANLKIPGVGSLSQSTICRFESLTLSHNNMIALKPILQAWLEEAEGAQREKMNKP, the abundance fitness was 0.13 ± 0.28.

Take RELEAFAERFKQRRIKLGVTQMDVGSALANLKIPGVGSLSQSTICRFESLTLSHNNMIALKPILQAWLEEAEGAQREKMNKP: the abundance fitness was -0.237 ± 0.16.

Regarding RELEAFAERFKQRRIKLGVTQWDVGSALANLKIPGVGSLSQSTICRFESLTLSHNNMIALKPILQAWLEEAEGAQREKMNKP, the abundance fitness was -0.038 ± 0.084.

For the variant RELEAFAERFKQRRIKLGVTQDDVGSALANLKIPGVGSLSQSTICRFESLTLSHNNMIALKPILQAWLEEAEGAQREKMNKP, the abundance fitness is -0.121 ± 0.15.

For the variant RELEAFAERFKQRRIKLGVTQCDVGSALANLKIPGVGSLSQSTICRFESLTLSHNNMIALKPILQAWLEEAEGAQREKMNKP, the abundance fitness was -0.098 ± 0.27.

As to RELEAFAERFKQRRIKLGVTQEDVGSALANLKIPGVGSLSQSTICRFESLTLSHNNMIALKPILQAWLEEAEGAQREKMNKP, the abundance fitness was 0.043 ± 0.098.

Regarding RELEAFAERFKQRRIKLGVTQIDVGSALANLKIPGVGSLSQSTICRFESLTLSHNNMIALKPILQAWLEEAEGAQREKMNKP, the abundance fitness is -0.218 ± 0.24.
